{
  "source": "patent US20220354929A1",
  "about": "“PEPTIDES AND USES THEREOF” (LATERAL IP PTY LTD, priority 2019, published 2022)",
  "key": {"dorsal horn neurones": {"tested_on": "dorsal horn neurones", "assay": "whole-cell patch clamp recording in spinal cord slices from Chung models of neuropathic pain: membrane properties of dorsal horn neurones", "type": "cell-based, rat", "details": "for ΔVm, change in membrane potential: prolactin 500 nM vs rest", "text": "(§1) An in vitro spinal cord slice with intact dorsal root afferents combined with single-cell whole-cell patch clamp electrophysiological recording techniques was used to assess the electrophysiological properties of the peptides having the amino acid sequence of SEQ ID NO:2, 3, 4 and 5.\nThe spinal nerve ligation model (Chung model) was first reported by Kim and Chung (1992; Pain, 50(3):355-63) and involves a single tight ligation of the L5 spinal nerve. […] This model has been used as a “gold standard” model for assessing the efficacy of novel compounds targeting neuropathic pain.\nAdult male Sprague-Dawley rats, 8-9 weeks old, weighing 220-250 g at the time of surgery, were purchased from Charles River UK Ltd. The animals were housed in groups of 4 in an air-conditioned room on a 12-hour light/dark cycle. Food and water were available ad libitum. They were allowed to acclimatise to the experimental environment for three days by leaving them on a raised metal mesh for at least 40 min. The baseline paw withdrawal threshold (PWT) was examined using a series of graduated von Frey hairs for 3 consecutive days before surgery and re-assessed on the 6th to 8th day after surgery and on the 12th to 14th day after surgery before drug dosing. Each rat was anaesthetized with 5% isoflurane mixed with oxygen (2L per min) followed by an intramuscular (i.m.) injection of ketamine 90 mg/kg plus xylazine 10 mg/kg. The back was shaved and sterilized with povidone-iodine. The animal was placed in a prone position and a para-medial incision was made on the skin covering the L4-6 level. The L5 spinal nerve was carefully isolated and tightly ligated with 6/0 silk suture. The wound was then closed in layers after a complete hemostasis. A single dose of antibiotics (Amoxipen, 15 mg/rat, i.p.) was routinely given for prevention of infection after surgery. The animals were placed in a temperature-controlled recovery chamber until fully awake before being returned to their home cages.\n(§2) Chung model rats, aged 8 to 12 weeks, were housed in an air-conditioned room on a 12 hour light/dark cycle with food and water available ad libitum. The rats were terminally anaesthetized using isofluorane and decapitated. The vertebral column, rib cage and surrounding tissues were rapidly removed and pinned under ice-cold (<4° C.), high sucrose-containing artificial cerebrospinal fluid (aCSF) comprising: 127 mM sucrose, 1.9 mM KCl, 1.2 mM KH2PO4, 0.24 mM CaCl2, 3.9 mM MgCl2, 26 mM NaHCO3, 10 mM D-glucose and 0.5 mM ascorbic acid. A laminectomy was performed and the spinal cord and associated roots gently dissected and teased out of the spinal column and surrounding tissues. Dura and pia mater and ventral roots were subsequently removed with fine forceps and the spinal cord hemisected. Care was taken to ensure dorsal root inputs to the spinal cord were maintained. The hemisected spinal cord-dorsal root preparations were secured to a tissue slicer and spinal cord slices (400 to 450 μm thick) with dorsal roots attached were cut in chilled (<4° C.) high sucrose aCSF using a Leica VT1000s microtome.\n(§3) Slices were transferred to a small beaker containing ice cold aCSF with 127 mM NaCl, 1.9 mM KCl, 1.2 mM KH2PO4, 1.3 mM MgCl2, 2.4 mM CaCl2, 26 mM NaHCO3 and 10 mM D-glucose, and rapidly warmed to 35° C. ±1° C. in a temperature-controlled water bath over a 20 minute period, then subsequently removed and maintained at room temperature (22° C. ±2° C.) prior to electrophysiological recording. Electrophysiological recording was performed in aCSF comprising 127 mM NaCl, 1.9 mM KCl, 1.2 mM KH2PO4, 1.3 mM MgCl2, 2.4 mM CaCl2, 26 mM NaHCO3 and 10 mM D-glucose.\nWhole-cell recordings were performed at 34-35° C. from Lamina I or II neurones in the dorsal horn of the spinal cord slices using Axopatch 1D and/or Multiclamp 700B amplifies and using the “blind” version of the patch-clamp technique. […]"}, "[1]": {"tested_on": "dorsal root afferent-mediated synaptic inputs to dorsal horn neurones", "assay": "whole-cell recording in spinal cord slices from Chung models: dorsal root afferent-mediated synaptic inputs (evoked EPSPs/IPSPs)", "type": "cell-based, rat", "details": "for effect on dorsal root-evoked IPSPs (in words): prolactin 500 nM, 0.1 Hz and 5 Hz", "method": "as §1, §2, §3\nWhole-cell recordings were performed at 34-35° C. from Lamina I or II neurones in the dorsal horn of the spinal cord slices using Axopatch 1D and/or Multiclamp 700B amplifies and using the “blind” version of the patch-clamp technique.\nPatch pipettes were pulled from thin-walled borosilicate glass with resistances of between 3 and 8 MS2 when filled with intracellular solution (140 mM potassium gluconate, 10 mM KCl, 1 mM EGTA-Na, 10 mM HEPES, 4 mM Na2ATP, 0.3 mM Na-GTP). The peptides of SEQ ID NOs:2, 3, 4 or 5 (LAT7771, LAT7772, LAT7773 or LAT7774) were diluted in the tissue bath at a concentration of 5 μM.\nA concentric bipolar stimulating electrode was placed appropriately either on the dorsal root or dorsal root entry zone to evoke postsynaptic potentials/currents in recorded cells (see FIG. 1). […] EPSPs/EPSCs were confirmed as monosynaptic on the basis of being characterised by a constant latency and rise-time with few failures.\nRecordings were monitored on an oscilloscope and stored on digital audio tapes for later off-line analysis. In addition, data were low-pass filtered at 2-5 kHz, (1 kHz for voltage-clamp data), digitized at 2-10 kHz and stored on a PC running pCLAMP 10 data acquisition software (Axon Instruments). Analysis of electrophysiological data was carried out using Clampfit 10 software."}, "[2]": {"details": "peptide 5 μM, responding neurones"}, "[3]": {"details": "prolactin 500 nM, control = 100"}},
  "note": "“And” between values parts separate entries of the source, which are not always exact repeats. Equal values may be shown once. “Also recorded” adds a separate entry of the source.",
  "data": [
    {"molecule": "CRIIHNNNCG [LAT7772]", "values": [
      {"measurement": "effect on membrane potential / postsynaptic membrane properties (in words)", "setting": "dorsal horn neurones; peptide 5 μM", "result": "overall had little effect on membrane potential; also recorded: small membrane depolarisation in 2 neurones; also recorded: both membrane depolarisations and hyperpolarisations; also recorded: hyperpolarisation"},
      {"measurement": "effect on neuronal input resistance (in words)", "setting": "dorsal horn neurones; peptide 5 μM", "result": "decrease in neuronal input resistance in all 5 neurones; also recorded: significant decrease in neuronal input resistance; also recorded: reduction in neuronal input resistance"},
      {"measurement": "neuronal input resistance, of control", "setting": "dorsal horn neurones; peptide 5 μM", "result": "60.1±12.3 % of control"},
      {"measurement": "change in neuronal input resistance", "setting": "dorsal horn neurones; peptide 5 μM vs control", "result": "149.1±81.7", "unit": "MS2"},
      {"measurement": "ΔIR, change in neuronal input resistance", "setting": "dorsal horn neurones; peptide 5 μM vs control, table prints control minus drug, text the magnitude", "result": 149.1, "unit": "MΩ"},
      {"measurement": "Input Resistance, mean in presence of peptide", "setting": "dorsal horn neurones; peptide 5 μM, all cells", "result": 172.3, "unit": "MΩ"},
      {"measurement": "neuronal input resistance in the presence of peptide", "setting": "dorsal horn neurones; peptide 5 μM, all cells", "result": "172.3±33.2", "unit": "MS2"},
      {"measurement": "Membrane Potential, mean in presence of peptide", "setting": "dorsal horn neurones; peptide 5 μM, all cells, ipsilateral to injury", "result": "−58.7±4.8 mV and −58.7 mV"},
      {"measurement": "Normalised Input Resistance, mean in presence of peptide", "setting": "dorsal horn neurones; peptide 5 μM, control = 100", "result": 60.1},
      {"measurement": "Normalised Input Resistance, ΔIR", "setting": "dorsal horn neurones; peptide 5 μM, control = 100", "result": 39.9},
      {"measurement": "reversal potential of peptide-induced response (intersection of VI relations)", "setting": "dorsal horn neurones; peptide 5 μM, individual neurones", "result": "around −78 mV and ~−55 mV and −100 mV and −60 mV and around −60 mV"},
      {"measurement": "membrane depolarisation in individual neurones", "setting": "dorsal horn neurones; [2]", "result": 12.7, "unit": "mV"},
      {"measurement": "membrane hyperpolarisation in individual neurones", "setting": "dorsal horn neurones; [2]", "result": "3.5 mV and 9.9 mV"},
      {"measurement": "Normalised Membrane Potential, mean in presence of peptide", "setting": "dorsal horn neurones; peptide 5 μM, rest = 100", "result": 98.6},
      {"measurement": "Normalised Membrane Potential, ΔVm", "setting": "dorsal horn neurones; peptide 5 μM, rest = 100", "result": 1.4},
      {"measurement": "effect on dorsal root-evoked EPSPs / excitatory synaptic transmission (in words)", "setting": "[1]; peptide 5 μM, dorsal root stimulation 0.1 Hz", "result": "suppressed dorsal root-evoked excitatory posts-synaptic potentials (EPSPs) in all neurones tested; also recorded: suppressive effect on EPSPs; also recorded: suppressed dorsal root afferent-mediated excitatory synaptic transmission"}
    ]},
    {"molecule": "Prolactin: native prolactin peptide (e.g., human prolactin of SEQ ID NO:30); parent prolactin protein (protein) MNIKGSPWKGSLLLLLVSNLLLCQSVAPLPICPGGAARCQVTLRDLFDRAVVLSHYIHNLSSEMFSEFDKRYTHGRGFITKAINSCHTSSLATPEDKEQAQQMNQKDFLSLIVSILRSWNEPLYHLVTEVRGMQEAPEAILSKAVEIEEQTKRLLEGMELIVSQVHPETKENEIYPVWSGLPSLQMADEESRLSAYYNLLHCLRRDSHKIDNYLKLLKCRIIHNNNC", "values": [
      {"measurement": "Input Resistance, mean in presence of prolactin", "setting": "dorsal horn neurones; prolactin 500 nM", "result": 637.3, "unit": "MΩ"},
      {"measurement": "effect on membrane potential (in words)", "setting": "dorsal horn neurones; prolactin 500 nM", "result": "principally induced membrane depolarisation"},
      {"measurement": "effect on neuronal input resistance (in words)", "setting": "dorsal horn neurones; prolactin 500 nM", "result": "increase in neuronal input resistance"},
      {"measurement": "neuronal input resistance in the presence of prolactin", "setting": "dorsal horn neurones; prolactin 500 nM", "result": "637.3±301.1", "unit": "MS2"},
      {"measurement": "increase in neuronal input resistance", "setting": "dorsal horn neurones; prolactin 500 nM vs control", "result": "79.0±60.5", "unit": "MS2"},
      {"measurement": "ΔIR, change in neuronal input resistance", "setting": "dorsal horn neurones; prolactin 500 nM vs control", "result": "−79.0", "unit": "MΩ"},
      {"measurement": "ΔVm, change in membrane potential", "setting": "dorsal horn neurones", "result": "−2.8", "unit": "mV"},
      {"measurement": "ΔVm, change in membrane potential", "setting": "dorsal horn neurones; listed as prolactin", "result": "2.8±2.0", "unit": "mV"},
      {"measurement": "Membrane Potential, mean in presence of prolactin", "setting": "dorsal horn neurones; prolactin 500 nM, all cells", "result": "−52.0", "unit": "mV"},
      {"measurement": "Membrane Potential, mean in presence of prolactin", "setting": "dorsal horn neurones; prolactin 500 nM, all cells, listed as prolactin", "result": "−52.0±8.4", "unit": "mV"},
      {"measurement": "Normalised Input Resistance, mean in presence of prolactin", "setting": "dorsal horn neurones; [3]", "result": 113.9},
      {"measurement": "Normalised Input Resistance, ΔIR", "setting": "dorsal horn neurones; [3]", "result": "−13.9"},
      {"measurement": "effect on membrane potential (in words)", "setting": "dorsal horn neurones; prolactin 500 nM, listed as prolactin", "result": "small membrane depolarisation in 2 neurones; also recorded: little effect on a further dorsal horn neurone; also recorded: marginal membrane depolarisation"},
      {"measurement": "reversal potential of prolactin-induced depolarisation (VI relations)", "setting": "dorsal horn neurones; prolactin 500 nM, one cell", "result": "around −90 mV"},
      {"measurement": "Normalised Membrane Potential, mean in presence of prolactin", "setting": "dorsal horn neurones; prolactin 500 nM, rest = 100", "result": 95.8},
      {"measurement": "Normalised Membrane Potential, ΔVm", "setting": "dorsal horn neurones; prolactin 500 nM, rest = 100", "result": 4.2},
      {"measurement": "effect on dorsal root-evoked IPSPs (in words)", "setting": "[1]", "result": "no effect on IPSPs evoked by dorsal root stimulation in one cell"},
      {"measurement": "effect on dorsal root-evoked IPSPs (in words)", "setting": "[1]; listed as prolactin", "result": "little effect on dorsal root stimulated inhibitory post-synaptic potentials (IPSPs)"}
    ]}
  ]
}
